Experimental data published in the RNAGym collection of RNA variant scans (doi:10.7554/elife.80360).

B1: CPEB3 Ribozyme (parent)
chain: GGGGGCCACAGCAGAAGCGUUCACGUCGCGGCCCCUGUCAGAUUCUGGUGAAUCUGCGAAUUCUGCUGU

Variants of: B1
Assay: self-cleavage, relative activity (ratio to wild type); higher = more cleavage; co-transcriptional

Point of comparison: GGGGGCCACAGCAGAAGCGUUCACGUCGCGGCCCCUGUCAGAUACUAGUGAAUCUGCGAAUUCUGCUGU [U44A G47A], self-cleavage 1.01. Against it:
- GGGGGCCACAGCAGAAGCGUUCACGUCGCGGCCCCUGUCAGAUACUGGUGAAUCUGCGAAUUGUGCUGU [U44A C63G] — lower, 0.645
- GGGGGCCACAGCAGAAGCGUUCACGUCGCGGCCCCUGUCAGAUACUGGUGAAUCUGCGAAUUUUGCUGU [U44A C63U] — lower, 0.985
- GGGGGCCACAGCAGAAGCGUUCACGUCGCGGCCCCUGUCAGAUACUGGUGAAUCUGCGAAUUCUGAUGU [U44A C66A] — lower, 0.758
- GGGGGCCACAGCAGAAGCGUUCACGUCGCGGCCCCUGUCAGAUACUUGUGAAUCUGCGAAUUCUGCUGU [U44A G47U] — lower, 1
- GGGGGCCACAGCAGAAGCGUUCACGUCGCGGCCCCUGUCAGAUACUGCUGAAUCUGCGAAUUCUGCUGU [U44A G48C] — the same, 1.01
- GGGGGCCACAGCAGAAGCGUUCACGUCGCGGCCCCUGUCAGAUACUGUUGAAUCUGCGAAUUCUGCUGU [U44A G48U] — lower, 0.982
- GGGGGCCACAGCAGAAGCGUUCACGUCGCGGCCCCUGUCAGAUACUGGUAAAUCUGCGAAUUCUGCUGU [U44A G50A] — lower, 0.962
- GGGGGCCACAGCAGAAGCGUUCACGUCGCGGCCCCUGUCAGAUACUGGUGAAUCUUCGAAUUCUGCUGU [U44A G56U] — lower, 0.677
- GGGGGCCACAGCAGAAGCGUUCACGUCGCGGCCCCUGUCAGAUACUGGUGAAUCUGCAAAUUCUGCUGU [U44A G58A] — lower, 0.963
- GGGGGCCACAGCAGAAGCGUUCACGUCGCGGCCCCUGUCAGAUACUGGUGAAUCUGCUAAUUCUGCUGU [U44A G58U] — lower, 0.951
- GGGGGCCACAGCAGAAGCGUUCACGUCGCGGCCCCUGUCAGAUACCGGUGAAUCUGCGAAUUCUGCUGU [U44A U46C] — lower, 0.993
- GGGGGCCACAGCAGAAGCGUUCACGUCGCGGCCCCUGUCAGAUACGGGUGAAUCUGCGAAUUCUGCUGU [U44A U46G] — lower, 0.981
- GGGGGCCACAGCAGAAGCGUUCACGUCGCGGCCCCUGUCAGAUACUGGCGAAUCUGCGAAUUCUGCUGU [U44A U49C] — lower, 0.922
- GGGGGCCACAGCAGAAGCGUUCACGUCGCGGCCCCUGUCAGAUACUGGUGAAUCGGCGAAUUCUGCUGU [U44A U55G] — lower, 0.551
- GGGGGCCACAGCAGAAGCGUUCACGUCGCGGCCCCUGUCAGAUACUGGUGAAUCUGCGAAGUCUGCUGU [U44A U61G] — lower, 0.645
- GGGGGCCACAGCAGAAGCGUUCACGUCGCGGCCCCUGUCAGAUACUGGUGAAUCUGCGAAUACUGCUGU [U44A U62A] — lower, 0.838
- GGGGGCCACAGCAGAAGCGUUCACGUCGCGGCCCCUGUCAGAUACUGGUGAAUCUGCGAAUUCCGCUGU [U44A U64C] — lower, 0.76
- GGGGGCCACAGCAGAAGCGUUCACGUCGCGGCCCCUGUCAGAUCCUGGUGAAUCUGCGACUUCUGCUGU [U44C A60C] — lower, 0.378
- GGGGGCCACAGCAGAAGCGUUCACGUCGCGGCCCCUGUCAGAUCGUGGUGAAUCUGCGAAUUCUGCUGU [U44C C45G] — lower, 1
- GGGGGCCACAGCAGAAGCGUUCACGUCGCGGCCCCUGUCAGAUCCUGGUGAAUCUGCGAAUUAUGCUGU [U44C C63A] — lower, 0.542
- GGGGGCCACAGCAGAAGCGUUCACGUCGCGGCCCCUGUCAGAUCCUCGUGAAUCUGCGAAUUCUGCUGU [U44C G47C] — lower, 0.963
- GGGGGCCACAGCAGAAGCGUUCACGUCGCGGCCCCUGUCAGAUCCUGGUAAAUCUGCGAAUUCUGCUGU [U44C G50A] — lower, 0.939
- GGGGGCCACAGCAGAAGCGUUCACGUCGCGGCCCCUGUCAGAUCCUGGUGAAUCUACGAAUUCUGCUGU [U44C G56A] — lower, 0.7
- GGGGGCCACAGCAGAAGCGUUCACGUCGCGGCCCCUGUCAGAUCCUGGUGAAUCUGCGAAUUCUACUGU [U44C G65A] — lower, 0.519
- GGGGGCCACAGCAGAAGCGUUCACGUCGCGGCCCCUGUCAGAUCCUGGUGAAUCUGCGAAUUCUUCUGU [U44C G65U] — lower, 0.488
- GGGGGCCACAGCAGAAGCGUUCACGUCGCGGCCCCUGUCAGAUCCUGGUGAAUCUGCGAAUUCUGCUUU [U44C G68U] — lower, 0.987
- GGGGGCCACAGCAGAAGCGUUCACGUCGCGGCCCCUGUCAGAUCCGGGUGAAUCUGCGAAUUCUGCUGU [U44C U46G] — lower, 0.98
- GGGGGCCACAGCAGAAGCGUUCACGUCGCGGCCCCUGUCAGAUCCUGGUGAAUCGGCGAAUUCUGCUGU [U44C U55G] — lower, 0.372
- GGGGGCCACAGCAGAAGCGUUCACGUCGCGGCCCCUGUCAGAUCCUGGUGAAUCUGCGAAAUCUGCUGU [U44C U61A] — lower, 0.801
- GGGGGCCACAGCAGAAGCGUUCACGUCGCGGCCCCUGUCAGAUCCUGGUGAAUCUGCGAAGUCUGCUGU [U44C U61G] — lower, 0.49
- GGGGGCCACAGCAGAAGCGUUCACGUCGCGGCCCCUGUCAGAUCCUGGUGAAUCUGCGAAUACUGCUGU [U44C U62A] — lower, 0.728
- GGGGGCCACAGCAGAAGCGUUCACGUCGCGGCCCCUGUCAGAUCCUGGUGAAUCUGCGAAUUCCGCUGU [U44C U64C] — lower, 0.565
- GGGGGCCACAGCAGAAGCGUUCACGUCGCGGCCCCUGUCAGAUCCUGGUGAAUCUGCGAAUUCUGCCGU [U44C U67C] — lower, 0.937
- GGGGGCCACAGCAGAAGCGUUCACGUCGCGGCCCCUGUCAGAUGCUGGUGACUCUGCGAAUUCUGCUGU [U44G A52C] — lower, 0.976
- GGGGGCCACAGCAGAAGCGUUCACGUCGCGGCCCCUGUCAGAUGCUGGUGAAUCUGCGCAUUCUGCUGU [U44G A59C] — lower, 0.629
- GGGGGCCACAGCAGAAGCGUUCACGUCGCGGCCCCUGUCAGAUGGUGGUGAAUCUGCGAAUUCUGCUGU [U44G C45G] — lower, 0.855
- GGGGGCCACAGCAGAAGCGUUCACGUCGCGGCCCCUGUCAGAUGUUGGUGAAUCUGCGAAUUCUGCUGU [U44G C45U] — lower, 0.945
- GGGGGCCACAGCAGAAGCGUUCACGUCGCGGCCCCUGUCAGAUGCUGGUGAAUAUGCGAAUUCUGCUGU [U44G C54A] — lower, 0.596
